From a protein production outcome set (Wang et al. 2014)

Experiment: label from the status in PepcDB records

Sequence | protein production
MIEMAYDDDENSMAIKVWRLYVDLWKLWYKKNERNLNKIDLSITEFTIMRHLIENGPMSMAAIASLINVTPGWITGVVDKMEEKNLVTRNRDSTDRRIIKIAITDRGREVYENAKKNHYAFIRKALAELNENELQQTYVLLQKMMDDVSKLESN | failed
ELDDATCDDIYSGYLKAYEQNWTAYPDAKGVLDRAVATGAPVGILTNGAAPMQQDKLDRTGLGLPELVMLAASTLDSAKPRPEMYARALTHLGARTATIIGDDWTNDVAAPRELGWNALYLDRSGTDPRADIHSLDELFH | failed
MHSAALLQKVDELPRLPKAIAELLDVVNNEDSTVKAVSEKLSHDPVLSARVLRLANSARFGCSREVGTIDDAVVRLGMQTLRTLVIASAVVGAVPKVEGFDLADFWGNTFEVAIICQELAKRLGTLPEEAFTCGILHSIGELLIVNGDPAVAATISAAVADGADRNLMEKELLGYDNAEIGALLAQSWKFTPHLVKGIQFQNHPKSAEPYSKLAGMLAMAKQIAADWDKIPDDERTSWLAQINILAGIKVDLGGLAEKLAKMHGQGMEMGKQLA | not failed
MPDIFQQEARGWLRCGAPPFAGAVAGLTTKHGGESKGPFASLNMGLHVGDDRTDVVNNRRRLAEWLAFPLERWVCCEQVHGADIQKVTKSDRGNGAQDFATAVPGVDGLYTDEAGVLLALCFADCVPIYFVAPSAGLVGLAHAGWRGTAGGIAGHMVWLWQTREHIAPSDIYVAIGPAIGPCCYTVDDRVVDSLRPTLPPESPLPWRETSPGQYALDLKEANRLQLLAAGVPNSHIYVSERCTSCEEALFFSHRRDRGTTGRMLAFIGRREEWT | not failed
MSCCIANAIRWDVSLLIHRSMSSSMSSVQPTSPVSDSPSLGEMHASVAVSRRGHWGFRLLAFLGPGYMVSVGYMDPGNWATGLAGGSRFGYMLLSVILLSNVMAIVLQALAARLGIASDMDLAQACRARYSRGTNLALWAVCELAIIACDLAEVIGTAIALNLLLGVPIILGAVITAVDVVLVLLLMHRGFRALEAFVIALLLVIFGCFVVQIVLAAPPLQEVLGGFVPRWQVVADPQALYLAIGIVGATVMPHNLYLHSSIVQTRAYPRTPVGRRSALRWAVADSTLALMLALFINASILILAAAVFHAQHHFDVEEIEQAYQLLAPVLGVGVAATLFATALLASGINSTVTATLAGQIVMEGFLRLRLRPWLRRVLTRGLAIVPVIVVVALYGEQGTGRLLLLSQVILSMQLPFAVIPLLRCVADRKVMGALVAPRWLMVVAWLIAGVIVVLNVKLLGDYAVHLMVGVSD | failed
MKSSNIGGQAVMEGIMMRHKDKYAIAVRRPDKEIELKVEDYKCTFGKAAFLKWPIIRGVVSFVDGLVVGTKCLMYSAEIAGDEEDEKEAAKNATLTEEELSAKKAKEAKQFQ | not failed
MGHHHHHHSHNSSSCPEIQGFLHVKELGKKSWKKLYVCLRRSGLYCSTKGTSKEPRHLQLLADLEDSNIFSLIAGRKQYNAPTDHGLCIKPNKVRNETKELRLLCAEDEQTRTCWMTAFRLLKYGMLLYQNYRIPQQRKALLSPFSTPVRSVSENSLVAMDFSGQTGRVIENPAEAQSAALEEGHAWRKRSTRMNILGSQSPLHPSTLSTVIHRTQ | failed
MNASLTPDQVSKKLKQFFSDHLPISQFMGLEIESYDGDTLILTAPLEPNINDKQTAFGGSLYNAAVMACWGMVYLKTQEENIACNQVVTEGNMKYIAPVYGRIRAICHAPDEEELANFFDHFERKGKARISLEAAIYNDACVMKIEPETKPSVKFNGQYAILKNQ | not failed
MLEGQLEAGEPKEGTHPEDPCPGAGAAMEKTPAAAEVPREDSNAGEMPSLQQQITSLHQELGRQQSLWADIHRKLQSHMDALRKQNRELREELRGLQRQQWEAGKKPAASPHAGRESHTLALEPAFGKISPLSADEETTPKYAGRKSQSATLLGQRWSSNHLAPPKVTLRAYRL | failed
MPCDFPGCGRIFSNRQYLNHHKKYQHIHQKSFSCPEPACGKSFNFKKHLKEHMKLHSDTRDYICEF | not failed
MKANNHFKDFAWKKCLLGASVVALLVGCSPHIIETNEVALKLNYHPASEKVQALDEKILLLRPAFQYSDNIAKEYENKFKNQTALKVEQILQNQGYKVISVDSSDKDDLSFSQKKEGYLAVAMNGEIVLRPDPKRTIQKKSEPGLLFSTGLDKMEGVLIPAGFVKVTILEPMSGESLDSFTMDLSELDIQEKFLKTTHSSHSGGLVSTMVKGTDNSNDAIKSALNKIFANIMQEIDKKLTQKNLESYQKDAKELKGKRNR | failed
MNMKATALTATTVAIASLLPSMGETNVQTANAEQLSNVKTGYVKVDQVALHTKDNANSSSIDTIRFNTKVNILETTNGWYKVSVNNKVGYVQKDSILLKNKLQSNNQYIVNANALNVRSEPNLESSILDVLPNGKFVTIQEEQGEWYKISHNGKAGYVQKAFVSNGSQPLVKGITVQNNTKYTVATPKLNVRSNASTSSALLGSLQNGTQLQVVETVGTWYKIRFGTGYGYVAKHYVVQNQTQSQTQTAQPTSIPAVFKFPTQGRISSTFDMRWEQMHYGIDIAAPGNVSIQAAAAGKVVKSYYSASYGNVVFIAHQINGKLYTTVYAHMKDRTVQAGDQVQAGQLVGHMGNTGHSYGQHLHFELHNGEWNFEKTNAVNPLPYLVRLEHHHHHH | failed
MPIDQEKLAKLQKLSANNKVGGTRRKLNKKAGSSAGANKDDTKLQSQLAKLHAVTIDNVAEANFFKDDGKVMHFNKVGVQVAAQHNTSVFYGLPQEKNLQDLFPGIISQLGPEAIQALSQLAAQMEKHEAKAPADAEKKDEAIPELVEGQTFDADVE | failed
MILKKEYSYESLRKKGAKKKKNFLCLQKYAMIYLVIRRYPYMSFGQKFKHFLAPLDEDDILEVEQDAEEEDAQTISQYEQQRSRMNKLPNDTKMVLFEPRSFDEADEIARRLKENKAAVVNLHKLQREYAQRTIDFLTGVIFALDGSIQKIGHNVILCTPNNVPVQGQITLDSGEDE | failed
MDSIQESDVLNAVKTKLPPCCLRIFRNKIILVGTYDLDKSTGYRSGSLDVFTMDLKLLCSNNTYGAILDLKLSPFDDTLICTAHSTGNIMLWRIRCTDKDDFQSNELDIHAIANLQLFEKDVLIASCHFSPLDCKKLLVTNTAGEAATIDIRTLSVQFTASAIAQAYSKLDKIDYEVQGATEKVIHVESGQFLKPHELECWTAEFGSLQPFQDVVFTGGDDSRIMAHDLRSKEFIWSNNRIHDAGVVSIKCSQPNFRNNKPTSIITGSYDDNIRSLDLRMMGESIFPGANVPTVNKLACDLGGGVWRFVESPIDQEQSHHNGSDRLLVCCMYNGAKVVTMNDNSDEYFQIQHYLKKGHDSMCYGGDWSNSLIATCSFYDNSLQTWIV | failed
MQTNLLSRPTSAKSTSMSDKINHPQLCQWLESVAISRDKQAFTHLFQFFAPKILRIARGKFPNEAQANEVVQDTMSNVWRKAHLYNQDKGAATTWVYTVMRNVTFDMLRKIQGNKEDNLSDDIWPIAESMSIENEIFDDHLEHANLLSVIEELPQAQQDVVKGFYFREMSQEQLAVHLHLPLGTVKSRLRLALGKLKVQLGEKHD | failed
MKHLPKHLRPRWRYLAVGIETWPNASFGRRAFQREVWYAAQNLLGDTGSAETDMTVLQFHDYDGTAEAIVRTRRGQTNPARAALTCLDSVDDDDVRVRVRGISGTVRACEEKYIRGPPEFTEQRHVVFENADRSATVRPPRYDVETASDGAFVGATALDFR | failed
MKLLFVSPGWPRGRLWGELGFKFPSLSLAALAAVTPESWDVALCDENIEPLDLNSDADLVAITAMTPQAPQAYRIAAAFRARGKRVVMGGFHASNLPEEALQHVDAVVVGEGEVVWPQLLADLERGELQRIYRAATALAMEAIPVARRELFQGKRYLFTNTLQTTRGCPFDCEFCSVTAFYGRRYRKRPVDNVLAELELLRRRNSFAFFVDDNLVADRTYALSLFAGMKGMGFKWLSHAPIDFAHDREFLRAAGEAGCVGMFVGFESLNQDALAAMGKVTNTARSYLEDAQAFRDNGIGILGSFVLGCDNDTPAVFEGLLRFCEEARLEAAIFPILTPYPGTEVRRRLEAEGRIISSDWQDYDMEHVTFLPRGMSVDELQQGYDWLNRSFYSLPSMYRRIFKAHRSVQVFAPMNFGFRSAIRRKGRVA | failed
MANSTESGSLQSSSTVKVRSHYRPNNGTGSPGGRPRPKRGFLPLGKGLVWGGLVTLTATVAAIAGVGIGFFTPGPKGLVQQVIPGQSAGVEAGQADLFPYHISRPVNILVMGIDRVEPTEEEPNVDEFGGRSDTMLLVRFDPRENGLKLLSIPRDTRVFIPDVGYTKINDANAYGGPQLAARVINRNLGEVPIDRYVRVTTDALQELVDLVGGVEVFVPRPMFYEDKTQQLLIDLPAGLQTLNGQQAEQFVRFRYDANGDIGRVQRQETLLKALQNRLSHPSMITRIPKAIGIMQKTVDTNLTMEEILALVNFGRQLDRQEVQMVMLPGRFSQPAEFDGRSYWVMSDVGKRQVLRNYFDVIEEVPTWAETPGRSPESLRIALQNATDDPQALERVKEYLQSKDFRNFYETSESPQLLAETKILVQRGDLDGAHYLRQTLGGGVVEASSVGDLGSDLTIQVGMDLDQWLKESTPVDDSTPQF | failed
MTIPTISELKKDRIIPHVFPNDKIDLNVDLFISFKAGKEVNHGNVLDIAGTGSVPRNIKFSEEPPDGYCFVLFMVDPDYPSRLRPDGKEYIHWVVSGIKTKELIKGTQKNCVTILPYVGPSIKKGTGLHRISFIISLIKEEDKDNITGLPHYKGEKYITRVKFNNYESVHNIAQINNMKIVGYNWCQIEG | failed
MEKYIFWVTAIFQIGVFALMLYYLFIALFGFYKKKDTKTFEPQKKFAMLVAAHNEEVVIENLVESLKHLDYPKELYDIFVIADNCTDNTAKIARAAGANVFERFNKEKRGKGFALEWMFDKIFKMDTHYDGIAVFDADNLVDKNFLKEMNNKMCEGFKVVQGYIDSKNPQDSWITESYAIAFTSANRMLQLAKSNIGLSAQIGGTGFVIDTATLKKLGWGATCLTEDLEFSCKLILNGEKVGWAHDAIIYDEKPLTLKASWNQRKRWMQGFADVATRYGMKLLKKSIKDRSLVAFDCTLYVMQPFVTLATGLAGLLTFVQIRAVDGLGIFVISYLFNATVWQLFCVFQFLLTPFALLFDKKMSGKLFVVLGLYACNVFIQPYLINQLGILDNIMLLTLFNVAYIGIFLIGTLLFLGKRNFQIFYRYLIYPLYILTWIPITIQGIIDKDKKEWSHTKHVRQIGIYEV | failed
MRKLWPLALLLAACGAQDVGAGLDPLRLTATSLPPAYLGEPYSASLAAEGGVRPYSFTLDGKLPEGLSFQGGRLFGVPKEKGSFPLLLTVEDAAKNSRAQRLTLTVSDPPPPRLALVLPPAQVEGPFLLLARVEGREAVGFQMEVRLADLEPDLAGLKALSPAHLLDYDPATRLLRLDMAFAKPVKDREAFRLLLTPQKPLVPRLSPKVVFYDKEGKPLGQPLPRGKPFAELLRLAQAWGREGKALKEDLDGDGKVGEADLRLLAQDYFPKPETPSPEAPGGGEGQASGEEQARLEHHHHHH | failed
SLSEDKMDLYLQQGMYGPLETKPDERHLFLGSLRERVVLALTKGQVLRSKPYKEAEHELKNSHNVTLLINGELQYQSYSSYIQMASRYGVPFKIVSDLQFHTPLGIVIAADIAVNRELIYIQDDIYNRSVLKS | not failed
MRNKDLEPHSFELWLNAAKTNLDKYEMALIITATLGLRRGEVMGLRNESIKISHDQINDADVAQISIDMQRNTNELNGGPLKTKSSYRTIWAFGKTVDHLKYAMITADNLRQRNNIQAEKHWLWLNNDGNPLHPTHLNRLMRRVSNRSGVEVYPHLLRHYFATQAIAANKPQIDVMHYLGHKNLQMTADYTRSTKAASLNVFNSIDKFLLEHHHHHH | failed
